Data: patent US20230176070A1
One block for each binder: values may come before it.

Key:
[1] = target: GST fusion PDZ mutant protein (R46E:K48D) (mammalian (so in the source)) (UniProt P57105); experiment: indirect ELISA, PDZ R46E:K48D coated
[2] = target: T1, PDZ domain of mitochondrial outer membrane protein 25 (mammalian (so in the source)) (UniProt P57105); experiment: indirect ELISA, wild type PDZ coated
T1 sequence (looked up): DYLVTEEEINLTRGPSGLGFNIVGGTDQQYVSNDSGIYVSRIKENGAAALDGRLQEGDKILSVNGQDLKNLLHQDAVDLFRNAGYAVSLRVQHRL

[3] = target: GST fusion PDZ mutant protein (R46E:K48D) (mammalian (so in the source)) (UniProt P57105); experiment: ELISA, wild type PDZ against PDZ R46E:K48D

- Mutant ELISA affinity (LogIC50 (oD450nm)) [1]: 0
- WT ELISA affinity (LogIC50 (oD450nm)) [2]: 4.7
- Affinity fold change [3]: 50600 fold
B1: P5 (VHH)
VHH: DVQLVESGGGLVQAGDSLRLSCAASGITFRWYTMAWFRQAPGKERDFVATINWSGSDTNYADSVKGRFTISRDNAKNTVTLQMNSLQPEDTAVYYCAGVPGTSLSGETDPRDYDYWGQGTQVTVSE

- Mutant ELISA affinity (LogIC50 (oD450nm)) [1]: 0
- WT ELISA affinity (LogIC50 (oD450nm)) [2]: 4.07
- Affinity fold change [3]: 11700 fold
B2: P11 (VHH)
VHH: DVQLVESGGGLVQAGGSLRLSCVASGRTFSTYTMGWFRQAPGKEREFVAHIGWSGSSTYYADSVKGRFTISRDNAKNTMYLQMNSLKPEDTAVYYCAVAIGSPVDSYRHSDPLEYDYWGQGTQVTVSE

- Mutant ELISA affinity (LogIC50 (oD450nm)) [1]: 1.66
- WT ELISA affinity (LogIC50 (oD450nm)) [2]: 4.97
- Affinity fold change [3]: 2060 fold
B3: P15 (VHH)
VHH: QVQLVESGGGLVQAGGSLRLSCVASGRPFSSLDMGWFRQRPGKERDVVATINWTGDSTYYLDSVKGRFTISRDNAKNTVFLQMNSLKPEDTAVYYCAARGGGSSVDSEYDVGEFEYDYWGQGTQVTVSS

- Mutant ELISA affinity (LogIC50 (oD450nm)) [1]: 0.0071
- WT ELISA affinity (LogIC50 (oD450nm)) [2]: 4.45
- Affinity fold change [3]: 28000 fold
B4: P13 (VHH)
VHH: QVQLVESGGGLVQAGGSLRLSCAASGRTFSTYTMGWFRQAPGKEREFVAAVTWSETLYSDSVKGRFTISRDNAKNTVYLQMNSLKPEDTAVYYCAAVQGSPVDTIVVLTTSEEYDYWGQGTQVTVSS

- Mutant ELISA affinity (LogIC50 (oD450nm)) [1]: 2.61
- WT ELISA affinity (LogIC50 (oD450nm)) [2]: 4.88
- Affinity fold change [3]: 185 fold
B5: P9 (VHH)
VHH: DVQLVESGGGLVQAGGSLRLSCVASVASGRTFGWYDMGWFRQAPGKEREFVAAISWSGGSTYYADSVKGRSTISRDNAKNTVYLQMNSLKPEDTAVYYCAARGGGTSVDSDYDVGEFEYDYWGQGTQVTVSE

- Mutant ELISA affinity (LogIC50 (oD450nm)) [1]: 4.73
- WT ELISA affinity (LogIC50 (oD450nm)) [2]: 5.25
- Affinity fold change [3]: 3.32 fold
B6: P6 (VHH)
VHH: HVQLVESGGGLVQAGGSLRLSCAASGRTFSRYTMGWFHQAPGKEREFVAEISGTGGNTGYADSVKGRFTMSRDNAKNTVYLQMNSLKPEDTGVYYCAAVIGSPTDSSDYRSSLDYDYWGQGTQVTVSE

- Mutant ELISA affinity (LogIC50 (oD450nm)) [1]: 3.74
- WT ELISA affinity (LogIC50 (oD450nm)) [2]: 5.15
- Affinity fold change [3]: 25.7 fold
B7: P14 (VHH)
VHH: QVQLVESGGGLVQAGDSLRLSCTASGRTFSTYTMAWFRQAPGKEREFVAAISWSGTYYADSVKGRFTISRDNAKNTVYLQMNSLKPEDTAVYYCAAVIGSTVDTYSPSDPLEYDYWGQGTQVTVSS
